{"source": "patent EP2878677A1", "about": "“Activators of protein phosphatase 5” (Deutsches Zentrum für Neurodegenerative Erkrankungen e.V. …, priority 2013, dated 2015)", "target": "YFP-Hsp90/DAF-21 (N-terminal YFP-tagged Hsp90) (C. elegans) (UniProt Q18688)", "experiment": "sedimentation velocity AUC with fluorescence detection; 300 nM YFP-Hsp90, 3 uM PPH-5; YFP-Hsp90 alone 6.8 S"}
{"substance": "PPH-5 (C. elegans protein phosphatase 5) (enzyme)", "values": [{"measurement": "sedimentation coefficient (s20,w) of YFP-Hsp90 in complex with PPH-5", "value": 8.9, "unit": "S"}]}
